# T1: P66 (rabbit ANGPTL7-his) (rabbit, UniProt G1T4P1 27-344)
# T1 construct: mature; also called rabbit ANGPTL7 protein
# T1 sequence: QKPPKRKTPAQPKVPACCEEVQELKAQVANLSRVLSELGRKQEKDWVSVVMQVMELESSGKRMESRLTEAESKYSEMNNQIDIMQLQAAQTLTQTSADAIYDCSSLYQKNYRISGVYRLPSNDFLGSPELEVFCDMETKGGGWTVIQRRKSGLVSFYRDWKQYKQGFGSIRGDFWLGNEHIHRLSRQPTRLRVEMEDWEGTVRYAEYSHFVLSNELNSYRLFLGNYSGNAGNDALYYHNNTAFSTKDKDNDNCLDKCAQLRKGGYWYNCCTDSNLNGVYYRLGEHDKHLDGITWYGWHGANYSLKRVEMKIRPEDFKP
# T2: muANGPTL7-his (R&D Systems) (mouse, UniProt Q8R1Q3 22-337, limits assumed)
# T2 construct: Bought protein; also called mouse ANGPTL7 protein
# T2 sequence (looked up): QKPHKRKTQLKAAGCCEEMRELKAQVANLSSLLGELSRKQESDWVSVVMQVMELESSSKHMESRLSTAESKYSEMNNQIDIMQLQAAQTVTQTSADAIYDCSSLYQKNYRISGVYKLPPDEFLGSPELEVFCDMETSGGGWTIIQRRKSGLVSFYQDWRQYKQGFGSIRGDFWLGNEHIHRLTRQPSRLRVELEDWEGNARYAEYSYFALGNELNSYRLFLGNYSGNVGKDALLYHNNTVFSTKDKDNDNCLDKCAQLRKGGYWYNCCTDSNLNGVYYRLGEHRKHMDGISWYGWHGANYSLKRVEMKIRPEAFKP
# T3: P60 (huANGPTL7-Fibrinogen-his) (human, UniProt O43827 129-343)
# T3 construct: also called human ANGPTL7 fibrinogen domain; not shown: C-terminal short linker and His tag
# T3 sequence: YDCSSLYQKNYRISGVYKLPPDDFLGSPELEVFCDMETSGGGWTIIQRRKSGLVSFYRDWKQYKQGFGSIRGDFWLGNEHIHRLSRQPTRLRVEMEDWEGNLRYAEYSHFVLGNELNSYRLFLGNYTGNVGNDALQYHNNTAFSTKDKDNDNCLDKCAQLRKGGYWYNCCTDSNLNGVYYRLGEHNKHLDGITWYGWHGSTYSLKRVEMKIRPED
# T4: P62 (huANGPTL7-his) (human, UniProt O43827 27-346)
# T4 construct: not shown: C-terminal short linker and His tag
# T4 chain: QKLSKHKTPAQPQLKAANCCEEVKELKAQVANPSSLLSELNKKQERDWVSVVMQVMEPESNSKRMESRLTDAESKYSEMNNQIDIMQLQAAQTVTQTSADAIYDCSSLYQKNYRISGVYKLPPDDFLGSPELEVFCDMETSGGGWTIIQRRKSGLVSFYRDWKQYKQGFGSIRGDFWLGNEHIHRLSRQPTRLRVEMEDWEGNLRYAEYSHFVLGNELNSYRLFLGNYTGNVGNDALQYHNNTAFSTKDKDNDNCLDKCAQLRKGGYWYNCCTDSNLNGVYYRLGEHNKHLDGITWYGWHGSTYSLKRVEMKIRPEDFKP
# Legend:
# [1] = target: T1, P66 (rabbit ANGPTL7-his); experiment: BLI Octet HTX; IgG on AHC sensor; P66 at 200 nM; 1:1 fit
# Protocol: (§1) Experiments were also conducted to determine the reactivity and dissociation constants (KA) of anti-ANGPTL7 antibodies with the rabbit ANGPTL7 protein. Binding experiments were performed on Octet HTX (ForteBio) in Rx PBS, pH 7.4, 0.1 mg/mi BSA, 0.05% Sodium Azide, and 0.02% Tween 20. Antibodies at a concentration of 50 nM were loaded on pre-hydrated AHC biosensors for 5 min. The loaded sensors were dipped into monovalent P66 (rabbit ANGPTL7-his) at a concentration of 200 nM for 5 min of association, followed by 10 min of dissociation. […] Responses (nm) at the end of association were also determined (Table 6).
# [2] = target: T2, muANGPTL7-his (R&D Systems); experiment: BLI Octet HTX; IgG on AHC sensor; muANGPTL7-his at 200 nM; 1:1 fit
# Protocol: as §1, with “(KD)” for “(KA)”, “mouse” for “rabbit”, “1×PBS,” for “Rx PBS,”, “[…].” for “min.”, “muANGPTL7-his (R&D Systems)” for “P66 (rabbit ANGPTL7-his)”, “5).” for “6).”
# [3] = target: T2, muANGPTL7-his (R&D Systems); experiment: BLI Octet HTX; IgG on AHC sensor; muANGPTL7-his at 200 nM
# Protocol: as §1, with “(KD)” for “(KA)”, “mouse” for “rabbit”, “1×PBS,” for “Rx PBS,”, “[…].” for “min.”, “muANGPTL7-his (R&D Systems)” for “P66 (rabbit ANGPTL7-his)”, “5).” for “6).”
# [4] = target: T3, P60 (huANGPTL7-Fibrinogen-his); experiment: BLI Octet HTX; IgG on AHC sensor; P60 at 200 nM; 1:1 fit
# Protocol: ANGPTL7 Antibody Kinetics. Experiments were conducted to determine the reactivity and dissociation constants (KD) of anti-ANGPTL7 antibodies with the human fibrinogen domain of the ANGPTL7 protein. Binding experiments were performed on Octet HTX (ForteBio) in 1×PBS, pH 7.4, 0.1 mg/ml BSA, 0.05% Sodium Azide, and 0.02 Tween 20. Antibodies at a concentration of 50 nM were loaded on pre-hydrated AHC biosensors for 5 min. The loaded sensors were dipped into monovalent P60 (huANGPTL7-Fibrinogen-his) at a concentration of 200 nM for 5 min association, followed by 10 min dissociation. […] Responses (nm) at the end of association were also determined (Table 2).
# [5] = target: T4, P62 (huANGPTL7-his); experiment: BLI Octet HTX; IgG on AHC sensor; P62 0.343-250 nM; global 1:1 fit (token printed under the kon column)
# Protocol: Experiments were also conducted to determine the reactivity and dissociation constants (KD) of anti-ANGPTL7 antibodies with the human ANGPTL7-his protein. Binding experiments were performed on Octet HTX (ForteBio) in 1×PBS, pH 7.4, 0.1 mg/mi BSA, 0.05% Sodium Azide, and 0.02% Tween 20. To measure monovalent binding kinetics, antibodies at a concentration of 50 nM were loaded on pre-hydrated AHC biosensors for 5 min. The loaded sensors were dipped into monovalent P62 (huANGPTL7-his) at a range of concentration from 0.343-250 nM (a serial 3-fold dilution) for 5 min association, followed by 10 min dissociation.
binder,measurement,setting,value
"ATX-P-437 (antibody, human IgG1, kappa, N297A, V domains shown, Full chains (VH + hIgG1-Agly-Fc)) VH: QITLKESGPTLVKPTQTLTLTCTFSGFSLSTSGVGVGWIRQPPGKALEWLALIYWNDDKQYSPSLKSRLTITKDTSKNQVVLTMTNMDPMDTATYYCAHNPDYGDFFDYWGQGTLVTVSS VL: not shown",Kd,[1],0.786 nM
same,Response,[1],0.8 nm
same,Response,[2],0.02 nm
same,binding result,[3],no binding (tested: 200 nM)
same,Kd,[4],0.658 nM
same,Response,[4],0.6 nm
same,binding result,[5],binds

# Reference: patent US20250296996A1 (BROADWING BIO, published 2025)
